Experimental findings from publication PMC11076338, “ACRE, a class of AP2/ERF transcription factors, activates the expression of sweet potato ß-amylase and sporamin genes through the sugar-responsible element CMSRE-1” are described below.

The labels stand for the following.
B1: SPO (dsDNA)
DNA 1: CTAGTACACTTGGACGGCCACAT
DNA 2: ATGTGGCCGTCCAAGTGTACTAG
B2: BA (dsDNA)
DNA 1: CTAGTCTTAATGGACGGTATTGT
DNA 2: ACAATACCGTCCATTAAGACTAG
B3: DRE (dsDNA)
DNA 1: TCGAGTAAATCATGTCGGTTGAAAG
DNA 2: CTTTCAACCGACATGATTTACTCGA

The first series deals with T1, ACRE1 (Arabidopsis thaliana, UniProt Q9C591 1-216).
T1 sequence: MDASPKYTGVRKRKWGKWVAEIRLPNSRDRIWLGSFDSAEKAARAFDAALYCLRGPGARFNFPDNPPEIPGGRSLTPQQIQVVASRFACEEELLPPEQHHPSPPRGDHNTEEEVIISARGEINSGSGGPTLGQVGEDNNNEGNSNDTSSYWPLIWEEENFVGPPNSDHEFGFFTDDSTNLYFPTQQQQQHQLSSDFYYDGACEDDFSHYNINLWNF
Briefly: EMSA; EMSA: 15 mM HEPES-KOH pH 7.5, 25 mM KCl, 0.25 mM EDTA, 6% glycerol, 2 mM DTT, 20 fmol probe (Methods print 20 fg), 0.2-0.8 ug protein, room temperature 30 min. To be noted: protein: recombinant; tags: MBP (N-terminal); label: biotin as probe. Background: A gel shift assay detects complexes by their altered migration in electrophoresis.
As to B1, the binding result is on record as “binds”.

Regarding B2, the binding result is reported as “binds”.

Regarding B3, the binding result is “binds”.

The target in the next series is T2, ACRE2 (ERF017) (Arabidopsis thaliana, UniProt Q84QC2 1-185).
T2 sequence: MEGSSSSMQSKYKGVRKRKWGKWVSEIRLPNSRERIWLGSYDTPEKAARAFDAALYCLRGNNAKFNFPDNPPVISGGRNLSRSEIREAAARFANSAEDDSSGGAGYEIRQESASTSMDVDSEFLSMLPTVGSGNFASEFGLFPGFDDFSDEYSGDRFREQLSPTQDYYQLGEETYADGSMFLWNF
Described as above. To be noted: protein: recombinant; tags: MBP (N-terminal); label: biotin as probe.
As for B1, the binding result is listed as “binds”.

On to B2, for which the binding result is “binds”.

Regarding B3, the binding result was “binds”.

The target in the next series is T3, ORA47/ACRE3 (ERF018) (Arabidopsis thaliana, UniProt Q9S7L5 1-195).
T3 sequence: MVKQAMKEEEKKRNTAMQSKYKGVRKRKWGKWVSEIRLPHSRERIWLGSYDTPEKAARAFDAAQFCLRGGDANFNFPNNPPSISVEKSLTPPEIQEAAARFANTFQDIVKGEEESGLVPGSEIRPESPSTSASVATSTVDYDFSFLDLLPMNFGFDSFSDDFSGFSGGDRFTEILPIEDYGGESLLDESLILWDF
The description is as above. To be noted: protein: recombinant; tags: MBP (N-terminal); label: biotin as probe.
For the molecule B1, the binding result is reported as “binds”.

On to B2, for which the binding result was “binds”.

Take B3: the binding result is “binds”.
